System: purified, Flag-tagged recombinant PGAM1 (rPGAM1)

| Substance | in vitro kinase assay (Y26 phosphorylation) | in vitro kinase assay (tyrosine phosphorylation) |
| --- | --- | --- |
| active, recombinant FGFR1 (rFGFR1) | FGFR1 (FIG. 13B), JAK2 (FIG. 13C) and FLT3 (data not shown) directly phosphorylated PGAM1 at Y26 in vitro | active, recombinant FGFR1 (rFGFR1) directly phosphorylated purified, Flag-tagged recombinant PGAM1 (rPGAM1) at tyrosine residues |
| active, recombinant JAK2 (rJAK2) | FGFR1 (FIG. 13B), JAK2 (FIG. 13C) and FLT3 (data not shown) directly phosphorylated PGAM1 at Y26 in vitro |  |
| FLT3 | FGFR1 (FIG. 13B), JAK2 (FIG. 13C) and FLT3 (data not shown) directly phosphorylated PGAM1 at Y26 in vitro |  |

Source: patent US20190002404
